Laboratory results from US20180244754A1.

Molecular target: human GH receptor (hGHR) (human) (UniProt P10912)
Test: cell-based or functional assay

Chain of UniProt P10912 (P10912 19-638): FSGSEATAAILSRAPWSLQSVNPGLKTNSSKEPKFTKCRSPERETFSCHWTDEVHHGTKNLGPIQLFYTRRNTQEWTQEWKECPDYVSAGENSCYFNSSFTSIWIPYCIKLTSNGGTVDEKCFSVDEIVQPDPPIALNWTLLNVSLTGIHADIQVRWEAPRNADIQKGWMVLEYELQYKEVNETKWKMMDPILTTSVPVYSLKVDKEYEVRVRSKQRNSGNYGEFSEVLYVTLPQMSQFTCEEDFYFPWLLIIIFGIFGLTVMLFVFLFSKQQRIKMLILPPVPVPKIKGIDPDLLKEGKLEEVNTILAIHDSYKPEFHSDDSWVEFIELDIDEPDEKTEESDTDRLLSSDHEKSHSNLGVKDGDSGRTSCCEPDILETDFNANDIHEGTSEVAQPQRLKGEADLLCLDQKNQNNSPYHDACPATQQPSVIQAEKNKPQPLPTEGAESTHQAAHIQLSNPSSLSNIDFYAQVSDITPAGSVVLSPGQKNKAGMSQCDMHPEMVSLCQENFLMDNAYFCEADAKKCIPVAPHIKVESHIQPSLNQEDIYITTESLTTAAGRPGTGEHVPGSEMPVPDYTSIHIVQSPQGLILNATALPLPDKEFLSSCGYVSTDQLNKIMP

| Substance | EC50 (nM), cell growth activity using BaF3/hGHR cells (absorbance at 490 nM) | EC50 of 22KhGH-HSA relative to EC50 of HSA-22KhGH, cell growth activity using BaF3/hGHR cells | EC50 of 22KhGH-mHSA relative to EC50 of mHSA-22KhGH, cell growth activity using BaF3/hGHR cells |
| --- | --- | --- | --- |
| 22KhGH-HSA (ligand) | 0.878 nM | 6.4 times |  |
| 22KhGH-mHSA (ligand) | 1.2 nM |  | 7.8 times |
| HSA-22KhGH (ligand) | 0.138 nM |  |  |
| mHSA-22KhGH (ligand) | 0.153 nM |  |  |
